± gives the standard deviation of the averaged measurements.
Experiments:
[1] = system: Saccharomyces cerevisiae; assay: protein stability index of tFT-peptide fusion (C-terminal peptide) (PSI (0-1 scale)); higher = more stable (slower turnover); conditions: genetic background: wild type; temperature: 30 C
[2] = system: Saccharomyces cerevisiae; assay: as above
Method: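 MPS profiling in S. cerevisiae of the tFT-X12 degron library: putative degron peptides plus stable controls, 12 aa, fused to the C-terminus of a sfGFP-mCherry timer. Cells are FACS-sorted into 8 mCherry/sfGFP bins and deep-sequenced. PSI runs from 0 (unstable) to 1 (stable). Backgrounds are wild type, das1Δ and doa10Δ at 30 °C, and wild type, das1Δ, cdc34-1 and cdc53-1 at 37 °C; 2-3 technical replicates each.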

[3] = genetic background: cdc34-1, temperature: 37 C
[4] = genetic background: cdc53-1, temperature: 37 C
[5] = genetic background: das1 deletion, temperature: 30 C
[6] = genetic background: das1 deletion, temperature: 37 C
[7] = genetic background: doa10 deletion, temperature: 30 C
[8] = genetic background: wild type, temperature: 30 C
[9] = genetic background: wild type, temperature: 37 C
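Further: PSI is a weighted mean of sequencing reads over stability bins, variants kept only with over 10 reads, mCherry proximal and sfGFP distal, peptide attached via GGGS linker.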

GTVRGDLSLWLC gave a protein stability index [1] of 0.349 ± 0.11, a protein stability index [2, 3] of 0.622 ± 0.047 and a protein stability index [2, 4] of 0.745 ± 0.0076. The protein stability index [2, 5] was 0.681 ± 0.0076, the protein stability index [2, 6] was 0.765 ± 0.015 and the protein stability index [2, 7] was 0.156 ± 0.012. For the same sequence, the protein stability index [2, 8] was 0.17 ± 0.031 and the protein stability index [2, 9] was 0.274 ± 0.023.
In the case of CLLLVISSLCSG, the protein stability index [1] is reported as 0.403 ± 0.011, the protein stability index [2, 3] is reported as 0.416 ± 0.047 and the protein stability index [2, 4] is reported as 0.462 ± 0.073. For the same sequence, the protein stability index [2, 5] was 0.336 ± 0.014, the protein stability index [2, 6] was 0.529 ± 0.023 and the protein stability index [2, 7] was 0.261 ± 0.0032. For the same sequence, the protein stability index [2, 8] was 0.301 ± 0.0098 and the protein stability index [2, 9] was 0.4964 ± 0.0038.
Work on VLSFWAFLFLLF yielded a protein stability index [1] of 0.335 ± 0.011, a protein stability index [2, 3] of 0.428 ± 0.012 and a protein stability index [2, 4] of 0.412 ± 0.026. For the same sequence, the protein stability index [2, 5] was 0.398 ± 0.023, the protein stability index [2, 6] was 0.488 ± 0.015 and the protein stability index [2, 7] was 0.31 ± 0.013. For the same sequence, the protein stability index [2, 8] was 0.282 ± 0.0089 and the protein stability index [2, 9] was 0.3785 ± 0.0022.
Work on GGWVIVFMVGRG yielded a protein stability index [1] of 0.427 ± 0.02, a protein stability index [2, 3] of 0.523 ± 0.049 and a protein stability index [2, 4] of 0.629 ± 0.084. For the same sequence, the protein stability index [2, 5] was 0.362 ± 0.033, the protein stability index [2, 6] was 0.5982 ± 0.002 and the protein stability index [2, 7] was 0.334 ± 0.0065. For the same sequence, the protein stability index [2, 8] was 0.3607 ± 0.0035 and the protein stability index [2, 9] was 0.535 ± 0.02.
For VVVRFCLGICFC, the protein stability index [1] was 0.388 ± 0.011, the protein stability index [2, 3] was 0.36066 ± 0.00017 and the protein stability index [2, 4] was 0.408 ± 0.013. For the same sequence, the protein stability index [2, 5] was 0.301 ± 0.022, the protein stability index [2, 6] was 0.438 ± 0.021 and the protein stability index [2, 7] was 0.265 ± 0.0087. It also gave a protein stability index [2, 8] of 0.288 ± 0.017 and a protein stability index [2, 9] of 0.41 ± 0.012.
CCLFFLVVFVGW gave a protein stability index [1] of 0.255 ± 0.021, a protein stability index [2, 3] of 0.167 ± 0.0038 and a protein stability index [2, 4] of 0.227 ± 0.027. The protein stability index [2, 5] was 0.191 ± 0.034, the protein stability index [2, 6] was 0.335 ± 0.027 and the protein stability index [2, 7] was 0.194 ± 0.029. For the same sequence, the protein stability index [2, 8] was 0.183 ± 0.019 and the protein stability index [2, 9] was 0.274 ± 0.0075.
FIAVSLSVFLVF was tested, and the protein stability index [1] was 0.234 ± 0.011, the protein stability index [2, 3] was 0.159 ± 0.015 and the protein stability index [2, 4] was 0.286 ± 0.0034. It also gave a protein stability index [2, 5] of 0.189 ± 0.022, a protein stability index [2, 6] of 0.322 ± 0.012 and a protein stability index [2, 7] of 0.1758 ± 0.00094. For the same sequence, the protein stability index [2, 8] was 0.181 ± 0.024 and the protein stability index [2, 9] was 0.287 ± 0.003.
WSSAHVAWCYTT gave a protein stability index [1] of 0.304 ± 0.013, a protein stability index [2, 3] of 0.619 ± 0.026 and a protein stability index [2, 4] of 0.723 ± 0.021. The protein stability index [2, 5] was 0.5991 ± 0.0031, the protein stability index [2, 6] was 0.7298 ± 0.0027 and the protein stability index [2, 7] was 0.1926 ± 0.00045. The protein stability index [2, 8] was 0.217 ± 0.022 and the protein stability index [2, 9] was 0.42 ± 0.0059.
For SVAWFIYVARSI, the protein stability index [1] was 0.471 ± 0.038, the protein stability index [2, 3] was 0.529 ± 0.023 and the protein stability index [2, 4] was 0.543 ± 0.072. For the same sequence, the protein stability index [2, 5] was 0.482 ± 0.017, the protein stability index [2, 6] was 0.611 ± 0.011 and the protein stability index [2, 7] was 0.282 ± 0.0042. The protein stability index [2, 8] was 0.329 ± 0.011 and the protein stability index [2, 9] was 0.5224 ± 0.0022.
With RPALVSIFLSAY the protein stability index [1] was 0.444 ± 0.027, the protein stability index [2, 3] was 0.555 ± 0.018 and the protein stability index [2, 4] was 0.567 ± 0.023. For the same sequence, the protein stability index [2, 5] was 0.4 ± 0.023, the protein stability index [2, 6] was 0.553 ± 0.0066 and the protein stability index [2, 7] was 0.38 ± 0.017. It also gave a protein stability index [2, 8] of 0.38 ± 0.021 and a protein stability index [2, 9] of 0.532 ± 0.0076.
Sequence VWAWAVVVFVVL has a protein stability index [1] of 0.241 ± 0.009, a protein stability index [2, 3] of 0.196 ± 0.054 and a protein stability index [2, 4] of 0.343 ± 0.0075. For the same sequence, the protein stability index [2, 5] was 0.205 ± 0.02, the protein stability index [2, 6] was 0.379 ± 0.017 and the protein stability index [2, 7] was 0.171 ± 0.01. For the same sequence, the protein stability index [2, 8] was 0.2 ± 0.035 and the protein stability index [2, 9] was 0.385 ± 0.046.
In the case of VRFRLLNVLASA, the protein stability index [1] is reported as 0.468 ± 0.056, the protein stability index [2, 3] is reported as 0.528 ± 0.0073 and the protein stability index [2, 4] is reported as 0.518 ± 0.048. It also gave a protein stability index [2, 5] of 0.395 ± 0.026, a protein stability index [2, 6] of 0.5582 ± 0.0043 and a protein stability index [2, 7] of 0.34 ± 0.015. For the same sequence, the protein stability index [2, 8] was 0.389 ± 0.021 and the protein stability index [2, 9] was 0.5305 ± 0.0031.
IYVLLDVNYHLP showed a protein stability index [1] of 0.468 ± 0.042, a protein stability index [2, 3] of 0.509 ± 0.024 and a protein stability index [2, 4] of 0.527 ± 0.0074. For the same sequence, the protein stability index [2, 5] was 0.379 ± 0.024, the protein stability index [2, 6] was 0.543 ± 0.014 and the protein stability index [2, 7] was 0.3542 ± 0.0026. For the same sequence, the protein stability index [2, 8] was 0.361 ± 0.026 and the protein stability index [2, 9] was 0.5681 ± 0.0038.
Work on PPLSRLAVFIVV yielded a protein stability index [1] of 0.4605 ± 0.0023, a protein stability index [2, 3] of 0.4397 ± 0.0027 and a protein stability index [2, 4] of 0.487 ± 0.052. For the same sequence, the protein stability index [2, 5] was 0.359 ± 0.036, the protein stability index [2, 6] was 0.524 ± 0.008 and the protein stability index [2, 7] was 0.3027 ± 0.0018. For the same sequence, the protein stability index [2, 8] was 0.353 ± 0.025 and the protein stability index [2, 9] was 0.4823 ± 0.003.
With VFLRFVLSFFLL the protein stability index [1] was 0.4516 ± 0.001, the protein stability index [2, 3] was 0.542 ± 0.03 and the protein stability index [2, 4] was 0.629 ± 0.023. It also gave a protein stability index [2, 5] of 0.526 ± 0.023, a protein stability index [2, 6] of 0.608 ± 0.0045 and a protein stability index [2, 7] of 0.424 ± 0.02. For the same sequence, the protein stability index [2, 8] was 0.418 ± 0.013 and the protein stability index [2, 9] was 0.489 ± 0.0065.
With FFMLLYSFFTFD the protein stability index [1] was 0.418 ± 0.014, the protein stability index [2, 3] was 0.434 ± 0.0044 and the protein stability index [2, 4] was 0.50402 ± 2.8e-06. It also gave a protein stability index [2, 5] of 0.38 ± 0.033, a protein stability index [2, 6] of 0.51926 ± 0.00029 and a protein stability index [2, 7] of 0.348 ± 0.004. The protein stability index [2, 8] was 0.375 ± 0.035 and the protein stability index [2, 9] was 0.506 ± 0.024.
Sequence RFTCCISLSFLM has a protein stability index [1] of 0.489 ± 0.01, a protein stability index [2, 3] of 0.498 ± 0.013 and a protein stability index [2, 4] of 0.492 ± 0.044. It also gave a protein stability index [2, 5] of 0.467 ± 0.011, a protein stability index [2, 6] of 0.472 ± 0.014 and a protein stability index [2, 7] of 0.491 ± 0.059. It also gave a protein stability index [2, 8] of 0.489 ± 0.033 and a protein stability index [2, 9] of 0.4341 ± 0.0021.
With VLFVLFASWFPR the protein stability index [1] was 0.487 ± 0.0066, the protein stability index [2, 3] was 0.453 ± 0.023 and the protein stability index [2, 4] was 0.4772 ± 0.002. The protein stability index [2, 5] was 0.375 ± 0.027, the protein stability index [2, 6] was 0.5458 ± 0.0053 and the protein stability index [2, 7] was 0.3679 ± 0.0025. For the same sequence, the protein stability index [2, 8] was 0.361 ± 0.024 and the protein stability index [2, 9] was 0.529 ± 0.047.
LRRQAFRYRTLL gave a protein stability index [1] of 0.221 ± 0.0096, a protein stability index [2, 3] of 0.458 ± 0.037 and a protein stability index [2, 4] of 0.552 ± 0.031. The protein stability index [2, 5] was 0.569 ± 0.021, the protein stability index [2, 6] was 0.566 ± 0.006 and the protein stability index [2, 7] was 0.1668 ± 0.0014. The protein stability index [2, 8] was 0.19 ± 0.0052 and the protein stability index [2, 9] was 0.2454 ± 0.00035.
CLVLCLSIPSPL was tested, and the protein stability index [1] was 0.55 ± 0.08, the protein stability index [2, 3] was 0.607 ± 0.027 and the protein stability index [2, 4] was 0.6246 ± 0.00068. For the same sequence, the protein stability index [2, 5] was 0.497 ± 0.03, the protein stability index [2, 6] was 0.6133 ± 0.0046 and the protein stability index [2, 7] was 0.501 ± 0.018. For the same sequence, the protein stability index [2, 8] was 0.5 ± 0.015 and the protein stability index [2, 9] was 0.606 ± 0.012.

Source: the supplement of paper PMC10724198
